These results are taken from patent US20260234236A1 (INTERVET, published 2026).

Changes are numbered by the printed parent chain. In names and notes the source's numbering stands.

The labels stand for the following.
T1: Canine IL-4 with C-terminal Avi-HIS tag (canine, biotin label when loaded on SA biosensors (Example 4); site not stated)
T1 construct: also called cIL-4; biotinylated avitag-cIL-4
T1 chain: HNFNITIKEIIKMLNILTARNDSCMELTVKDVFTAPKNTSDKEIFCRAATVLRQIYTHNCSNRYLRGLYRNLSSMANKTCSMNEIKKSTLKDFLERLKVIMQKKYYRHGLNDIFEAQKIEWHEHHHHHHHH

T2: Recombinant canine IL-4 (R&D Systems, Catalog: 752-CL/CF) (canine, UniProt O77762 25-132)
T2 sequence (looked up): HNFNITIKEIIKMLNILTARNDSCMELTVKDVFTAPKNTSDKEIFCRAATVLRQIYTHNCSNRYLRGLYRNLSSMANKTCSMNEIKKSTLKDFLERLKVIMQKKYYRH

T3: Canine IL-13 with C-terminal Avi-HIS tag (canine, biotin label when loaded on SA biosensors (Example 4); site not stated)
T3 construct: also called cIL-13; biotinylated avitag-cIL13
T3 chain: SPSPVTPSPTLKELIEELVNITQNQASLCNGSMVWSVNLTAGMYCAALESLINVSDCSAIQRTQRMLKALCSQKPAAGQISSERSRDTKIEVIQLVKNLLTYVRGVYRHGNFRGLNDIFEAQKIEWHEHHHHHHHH

B1: IL4-P3-1B9VH-cIgGB/IL4-P3-1B9VL-cCL (antibody, V domains shown)
VH: ELQLVELGGDLVKPGGSLRLSCVASGFTFSSYGMSWVRQSPGKGLQWVADISSSGSTYYADAVKGRFTISRDNAKSTLYLQMNSLRAEDTAVYYCAKAGYGSYYDFGMDYWGHGTSVFVSS
VL: QAVLTQPASVSAALGQRVTISCTGTATNVGGGYDVQWYQQFPGRPPKTIIYGNYNRPSGVPDRFSASTSGTTATLTITGIQVADEADYYCQSFDTTFNGHVFGAGTQLTILG
notes: Full-length canine IgG-B
B2: IL4-P3-1C4VH-cIgGB/IL4-P3-1C4VL-cCL (antibody, V domains shown)
VH: EVPLVESGGDLVKPGGSLRISCVASGITFNNDDMGWVRQAPGKGLQWLAEISSSGTSTYYADAVKGRFTISRDNAKNTVYLQMNSLKAEDTGVYYCVGEDGYMALGFWGQGTLVTVSS
VL: QAVLNQPASVSGSLGQRVTISCSGSTNNIGVVGASWYQQFPGKAPKLLVYSDGDRPSGVPDRFSGSNSGYSDTLTITGLQAEDEADYYCQSFDTTLNAYVFGSGTQLTVLG
notes: Full-length canine IgG-B; also called IL4 P3-1 C4 5LC
B3: IL4-P3-1B10VHm-cIgGB/IL4-P3-1B10VL-cCL (antibody, V domains shown)
VH: EVQLVESGGDLVKPGGSLRLSCVASGFTFSNYDMSWVRQAPGKGLQWVSTISYDGQNTYYSDAVKGRFTISRDNARNTLYLQMNSLRAEDTAVYYCAKEFDIPWDNFDYWGQGTLVTVSS
VL: QSVLTQPTSVSAALGQRVTISCTGSNANIGSVYDVQWYQQLPGKSPKTIIYGNTHRPSGVPVRFSGSKSGSTATLTITGIQAEDEADYYCQSYDATLHYVFGSGTQLTVLG
notes: Full-length canine IgG-B; also called IL4 P3-1 B10m
B4: IL4-P4-1G3VH-cIgGB/IL4-P4-1G3VL-cCL (antibody, V domains shown)
VH: EVQLVESGGDLVKPGGSLRLSCVASGFTFSSYDMDWVRQAPGKGLEWLSEISTNGDRTHYADAVKGRFAISRDNAKNTVYLQMNSLRAEDTAIYYCVRDGYEYLAFDYWGQGTLVTVSS
VL: QSVLNQLPSLSMNMGETATFTCEGDNIGHKYVNWYQQKPGQAPVLTIYEDNKRPSGIPERFSGSNSGNTATLTISGARAEDEADYYCESEVSTGIVFGGGTHLTVLG
notes: Full-length canine IgG-B
B5: IL4-P3-1D7VH-cIgGB/IL4-P3-1D7VL-cCL (antibody, V domains shown)
VH: EVQLVQSGGDLVKPGGSLRLSCVASGFAFNGYDMDWVRLAPGKGLQWLSEISSSGSPTYYADAVEGRFTISRDNAKNTLYLQMDSLRAEDTAVYYCARAGEYTYGYEGYYFDYWGQGTLVTVSS
VL: QSMLTQPASVSGSLGQRVAISCSGSTNNIGIFGATWYQHLPGKAPKFLLYSDGNRPSGVPDRFSGSDSGNSVTLMITALQAEDEADYYCQSFDTTLGAYVFGSGTQLTILG
notes: Full-length canine IgG-B; also called IL4-P3-1D7VH-cIgGB/IL4-P3-D7VL-cCL
B6: IL4-P4A-1A4VH-cIgGB/IL4-P4A-1A4VL-cCL (antibody, V domains shown)
VH: EVQLVESGGDLVKPGGSLRLSCVASGFNFSRYSMSWVRQAPEKGLQLVAAVNSGGSRTWYADAVQGRFTVSRDNAKNTLFLEMSSLKLEDTAMYYCAKDLWSTTIAEYDYWGQGTLVTVSS
VL: SYVLSQPPSVSVTPSETAHITCGGNNIGSKYVQWIRQSAGQAPVTIIYGNTNRPTGIPERFSGANSGNTATLTISGVLAEDEADYYCQVGDTDTTVFGGGTHLTVL
B7: IL4-P3-1B10VH-cIgGB/IL4-P3-1B10VL-cCL (antibody, V domains shown)
VH: B3 VH with Q56N
VL: B3 VL
B8: IL4-P3-1A6VH-cIgGB/IL4-P3-1A6VL-cCL (antibody, V domains shown)
VH: EVPLVESGGDLVKPGGSLRLSCVASGFTFHNYDLSWIRQLPGGGLQWVADIDKSGLTFYADAVKGRFTISRDNAKNTLYLQMNSLRAEDTAVYYCATWPLGSWYTETFEYWGQGTLVTVSS
VL: QPVLTQPPSVSAALGQRVTISCNTNIGSPYDVQWYQQLPGKSPKTIIYGNSNRPSGVPVRFSGSKSGSTATLTIAGIQAEDEADYYCQSYDDNVDGYVFGSGTQLTVLG
B9: IL13 P3-1 G5 scFv (scFv)
scFv: SYELTQPPSVSVSLGQTATISCSGESLSKYYAQWFQQKAGQAPVLVIYQDTERPSGIPDRFSGSSSGNTHTLTISGARAEDEADYYCESAISPDTYVFGSGTQLTILGGGSSRSSSSGGGGSGGGGEVQLVQSGGDLVKPGGTLRLSCVASGFTFSSYDMSWVRQSPGKGLQWVAAIWNDGSNTEYADAVKGRFTVSRDNAKNTVYLEMNSLRAEDTAMYYCVKEGPSYGYFDYWGQGTLVTVSSASTTAPSVTSGQAGQ
notes: scFv purified from E. coli periplasm on Ni-NTA
B10: IL13 P3-1 C2 scFv (scFv)
scFv: QAVLNQPASVSGSLGQRVTISCSGSSSNIGRGFVGWYQQLPGTRPKTLIYGDTFRPSGVPDRFFGSRSGSTATLTISGLQAEDEADYYCSTWDDSLAALLFGGGTHLTVLGGGSSRSSFSGGGGSGGGGEVQLVESGGDLVKPGGSLRLSCAASGFTFTDYDMSWVRQAPGKGLQWVATTSNGGSGTYYSDAVKGRFTISRDNAKNTLYLEMNRLRAEDTAVYYCVKEIYPASIDFWGLGTLVTVSSASTTAPSVTSGQAGQ
notes: as for B9
B11: IL13 P3-1 B4 scFv (scFv)
scFv: SYVLTQSPSVSGSLGQTVTISCSGTTIGVVGANWYQQLPGKAPKLLVHSDGGRLSGVPDRFSGSESGNSAALTITGLQAEDEADYYCQSFDTTLGYVFGSGTQLTILGGGSSRSSSSGGGGSGGGGELTLQESGPGLVKPSQTLSLTCVVSGGSVTSNYYWNWIRQRPGRGLEWMGYWTGSTNYNPAFQGRISITADTAKNHFSLQLTSMTTEDTAVYYCARASTWLHGMDFWGHGTSLFVSSESPSPPNLTSGQAGQ
notes: as for B9
B12: IL13 P3-05 scFv (scFv)
scFv: SYVLTQPPSVTVPLRQTARISCGGDNIRSKNVHWYQQKPGQAPVLIIYNDSNRPTGIPERFSGSNSGNMATLTIRGALAEDEADYYCQVWANDGYVFGSGTQLTVLGGGSSRSSSSGGGGSGGGGEVQLVESGGDSVRPGGSLRLSCVASGFTFSRYNMGWVRQAPGKGLQWVAWIYDGGSRTSYADAVKGRFTISRDNAKDTLYLQMDDLRVDDTAVYYCARDPSSWGSLFDYWGQGTLVTVSSASTTAPSVTSGQAGQ
notes: as for B9
B13: IL 13 P3-1C6 scFv (scFv)
scFv: QSVLTQPASVSGSLGQRVTISCSGRTNNIGYFGANWYQQVPGKAPKLLVSSYGNRPSGVPDRFSASNSANSATLTITGLQAEDEADYYCQSFDTTLGAVVFGGGTQLTVLGGGSSRSSSSGGGGSGGGGELTLQESGPGLVKPSQTLSLTCVVSGGSVTNTYEWDWIRQRPGRGLEWMGSWTDNTWYNPAFQGRISITADTAKNQLSLQLSSVTTGDTAVYFCARWTKRWGYDYWGQGTLVTVSSASTTAPSVTSGQAGQ
notes: scFv purified from E. coli periplasm on Ni-NTA; also called IL13 1C6

One test addresses T1, Canine IL-4 with C-terminal Avi-HIS tag. The test is described as follows: BLI (OCTET HTX); biotin-mAb on SA biosensors, cIL-4 in solution; 1:1 model. On the procedure:
Selected scFv specific to cIL-4 or cIL-13 were converted into full length canine IgG mAbs and tested for binding by OCTET. All kinetics measurements were performed by OCTET HTX using SA biosensors and Data Acquisition 12.0 software. First, each biotin-labeled full-length anti-canine IL-4 or anti-canine IL-13 mAb, at a concentration of 5 μg/mL, were loaded onto the pre-rehydrated SA biosensors until binding signal change ascended to a […] threshold for all channels from the step start or for a maximum of 1200s to insure equal loading density. Second, the biosensors were placed into OCTET Kinetics Buffer (PBS+0.02% Tween20, 0.1% BSA) for the blocking phase for 60s. Third, for the association phase, full-length anti-canine IL-4 mAb or anti-canine IL-13 mAb loaded biosensors were placed into 2-fold serial dilutions from 1000 nM down to 15.6 nM of cIL-4 or cIL-13, respectively, in OCTET Kinetics Buffer for 60s. The last well was buffer alone and that sensor was used for reference sensor subtraction. Finally, the biosensors were placed into OCTET Kinetics Buffer for the dissociation phase for 180s. Analysis was performed using Data Analysis 12.0 software and curves were fitted using a 1:1 binding model.
A word on the Kd: it is the equilibrium constant for the complex coming apart. The low end stands for a tighter complex, the high end for a looser complex. Broadly, the koff is a measure of how fast the partners let go of each other. A high value points to a short-lived complex. As a reminder, the kon is a measure of how fast the partners come together. Turning to B1, the affinity, expressed as Kd, was 0.0635 nM; the koff was 2.11e-05 s⁻¹; the kon amounted to 212000 M⁻¹ s⁻¹.
For B2, in that order: 10.5 nM, 0.0189 s⁻¹ and 1.8e+06 M⁻¹ s⁻¹.
The like results for B3 were, in that order, 0.622 nM, 0.000809 s⁻¹ and 1.3e+06 M⁻¹ s⁻¹.
The like results for B4 were, in that order, 1.51 nM, 0.00243 s⁻¹ and 1.61e+06 M⁻¹ s⁻¹.
B5 displayed a Kd of 2.01 nM, a koff of 0.00226 s⁻¹ and a kon of 1.12e+06 M⁻¹ s⁻¹.

The next test addresses T2, Recombinant canine IL-4 (R&D Systems, …). The test is described as follows: cell-based or functional assay.
In the case of B6, the “IL-4 IC50 (nM); inhibition of canine IL-4 mediated STAT6 phosphorylation in DH82 cells” value stood at 4.24 nM.
B1: the “IL-4 IC50 (nM); inhibition of canine IL-4 mediated STAT6 phosphorylation in DH82 cells” value was 3.77 nM.
Still for that read-out and setting: the value for B2 was 5.41 nM; that for B7 was 87.8 nM; that for B3 was 30 nM.
Same read-out and setting: for B4 the value was 8.31 nM; for B8, 0.56 nM; for B5, 37.6 nM.

The target of a further test is T3, Canine IL-13 with C-terminal Avi-HIS tag. The test is described as follows: BLI (OCTET HTX); biotin-cIL-13 on SA biosensors, scFv in solution; 1:1 model. As for the experimental part:
The in vitro binding of anti-canine IL-4 scFv and IL-13 scFv to canine IL-4 and canine IL-13, respectively, was determined by OCTET HTX using SA biosensors and Data Acquisition 12.0 software. First, biotin-labeled antigen (cIL-4 or cIL-13) was loaded onto the pre-rehydrated SA biosensors for 60 seconds (60s) at a concentration of 5 μg/mL. Second, the biosensors were placed into the OCTET Kinetics Buffer (PBS+0.02% Tween20, 0.1% BSA) for the blocking phase for 120s. Third, for the association phase, cIL-4 or cIL-13 antigen loaded biosensors were placed into 2-fold serial dilutions from 500 nM down to 7.8 nM of anti-cIL-4 or anti-cIL-13 scFvs, respectively, in OCTET Kinetics Buffer for 60s. The last well was buffer alone and that sensor was used for reference sensor subtraction. Finally, the biosensors were placed into OCTET Kinetics Buffer for the dissociation phase for 300s. The analysis was performed using Data Analysis 12.0 software and curves were fitted using a 1:1 binding model.
For the molecule B9, the affinity, expressed as Kd, was 158 nM; the off-rate constant (koff) is 0.0158 s⁻¹; the kon is 104000 M⁻¹ s⁻¹.
For B10, in that order: 77.4 nM, 0.00192 s⁻¹ and 29600 M⁻¹ s⁻¹.
In the case of B11, binding was put at a Kd of 13.1 nM, the off-rate constant (koff) came to 0.00224 s⁻¹ and the kon is 320000 M⁻¹ s⁻¹.
The like results for B12 were, in that order, 59.7 nM, 0.00487 s⁻¹ and 176000 M⁻¹ s⁻¹.
The like results for B13 were, in that order, 45.2 nM, 0.0107 s⁻¹ and 304000 M⁻¹ s⁻¹.
